Source: patent publication US20240368309A1 (Hoffmann-La Roche, published 2024)

Target: T1, human CD28 on CHO cells (CHO-k1 ATCC #CCL-61 modified to stably overexpress human CD28) (human, UniProt P10747 19-220)
T1 construct: also called CHO-k1-huCD28 cells; hu CD28
Assay: flow cytometry, CHO-k1 cells stably overexpressing human CD28; monovalent one-armed IgG from supernatant, PE-labelled goat anti-human detection; MFI (PE) against c [nM]

Row | binding result | Binder
1 | binds | CD28(SA)_variant_12 (antibody, human IgG1, kappa, L234A L235A, one-armed (monovalent) hu IgG1 PG-LALA, empty Fc hole; tested from supernatant; also called P1AE3068) heavy: not shown light: DIQMTQSPSSLSASVGDRVTITCRASQNIYVWLNWYQQKPGKAPKLLIYKASNLYSGVPSRFSGSRSGTDFTLTISSLQPEDFATYYCQQGQTYPYTFGQGTKLEIKRTVAAPSVFIFPPSDRKLKSGTASVVCLLNNFYPREAKVQWKVDNALQSGNSQESVTEQDSKDSTYSLSSTLTLSKADYEKHKVYACEVTHQGLSSPVTKSFNRGEC DKTHTCPPCPAPEAAGGPSVFLFPPKPKDTLMISRTPEVTCVVVDVSHEDPEVKFNWYVDGVEVHNAKTKPREEQYNSTYRVVSVLTVLHQDWLNGKEYKCKVSNKALGAPIEKTISKAKGQPREPQVCTLPPSRDELTKNQVSLSCAVKGFYPSDIAVEWESNGQPENNYKTTPPVLDSDGSFFLVSKLTVDKSRWQQGNVFSCSVMHEALHNRFTQKSLSLSP
2 | binds | CD28(SA)_variant_13 (antibody, human IgG1, kappa, L234A L235A, one-armed (monovalent) hu IgG1 PG-LALA, empty Fc hole; tested from supernatant; also called P1AE3069) heavy: not shown light: not shown DKTHTCPPCPAPEAAGGPSVFLFPPKPKDTLMISRTPEVTCVVVDVSHEDPEVKFNWYVDGVEVHNAKTKPREEQYNSTYRVVSVLTVLHQDWLNGKEYKCKVSNKALGAPIEKTISKAKGQPREPQVCTLPPSRDELTKNQVSLSCAVKGFYPSDIAVEWESNGQPENNYKTTPPVLDSDGSFFLVSKLTVDKSRWQQGNVFSCSVMHEALHNRFTQKSLSLSP
3 | binds | CD28(SA)_variant_11 (antibody, human IgG1, kappa, L234A L235A, one-armed (monovalent) hu IgG1 PG-LALA, empty Fc hole; tested from supernatant; also called P1AE3067) heavy: not shown light: not shown DKTHTCPPCPAPEAAGGPSVFLFPPKPKDTLMISRTPEVTCVVVDVSHEDPEVKFNWYVDGVEVHNAKTKPREEQYNSTYRVVSVLTVLHQDWLNGKEYKCKVSNKALGAPIEKTISKAKGQPREPQVCTLPPSRDELTKNQVSLSCAVKGFYPSDIAVEWESNGQPENNYKTTPPVLDSDGSFFLVSKLTVDKSRWQQGNVFSCSVMHEALHNRFTQKSLSLSP
4 | binds | CD28(SA)_variant_15 (antibody, human IgG1, kappa, L234A L235A, one-armed (monovalent) hu IgG1 PG-LALA, empty Fc hole; tested from supernatant; also called P1AE3071) heavy: not shown light: not shown DKTHTCPPCPAPEAAGGPSVFLFPPKPKDTLMISRTPEVTCVVVDVSHEDPEVKFNWYVDGVEVHNAKTKPREEQYNSTYRVVSVLTVLHQDWLNGKEYKCKVSNKALGAPIEKTISKAKGQPREPQVCTLPPSRDELTKNQVSLSCAVKGFYPSDIAVEWESNGQPENNYKTTPPVLDSDGSFFLVSKLTVDKSRWQQGNVFSCSVMHEALHNRFTQKSLSLSP
5 | binds | CD28(SA)_variant_16 (antibody, human IgG1, kappa, L234A L235A, one-armed (monovalent) hu IgG1 PG-LALA, empty Fc hole; tested from supernatant; also called P1AE3072) heavy: not shown light: not shown DKTHTCPPCPAPEAAGGPSVFLFPPKPKDTLMISRTPEVTCVVVDVSHEDPEVKFNWYVDGVEVHNAKTKPREEQYNSTYRVVSVLTVLHQDWLNGKEYKCKVSNKALGAPIEKTISKAKGQPREPQVCTLPPSRDELTKNQVSLSCAVKGFYPSDIAVEWESNGQPENNYKTTPPVLDSDGSFFLVSKLTVDKSRWQQGNVFSCSVMHEALHNRFTQKSLSLSP
6 | binds | CD28(SA)_variant_17 (antibody, human IgG1, kappa, L234A L235A, one-armed (monovalent) hu IgG1 PG-LALA, empty Fc hole; tested from supernatant; also called P1AE3073) heavy: not shown light: not shown DKTHTCPPCPAPEAAGGPSVFLFPPKPKDTLMISRTPEVTCVVVDVSHEDPEVKFNWYVDGVEVHNAKTKPREEQYNSTYRVVSVLTVLHQDWLNGKEYKCKVSNKALGAPIEKTISKAKGQPREPQVCTLPPSRDELTKNQVSLSCAVKGFYPSDIAVEWESNGQPENNYKTTPPVLDSDGSFFLVSKLTVDKSRWQQGNVFSCSVMHEALHNRFTQKSLSLSP
7 | binds | CD28(SA)_variant_19 (antibody, human IgG1, kappa, L234A L235A, one-armed (monovalent) hu IgG1 PG-LALA, empty Fc hole; tested from supernatant; also called P1AE3075) heavy: not shown light: not shown DKTHTCPPCPAPEAAGGPSVFLFPPKPKDTLMISRTPEVTCVVVDVSHEDPEVKFNWYVDGVEVHNAKTKPREEQYNSTYRVVSVLTVLHQDWLNGKEYKCKVSNKALGAPIEKTISKAKGQPREPQVCTLPPSRDELTKNQVSLSCAVKGFYPSDIAVEWESNGQPENNYKTTPPVLDSDGSFFLVSKLTVDKSRWQQGNVFSCSVMHEALHNRFTQKSLSLSP
